For test [1], the target named is IGF-I receptor (cell line of the PathHunter IGF1R Functional Assay, DiscoverX) (UniProt P08069). The experiment in a line: cell-based or functional assay.
In test [2] the target is insulin receptor (cell line of the PathHunter INSR Functional Assay, DiscoverX) (UniProt P06213). Nature of the test: cell-based or functional assay.

In test [1], FLAG M2 antibody came in with an activation of the IGF-I receptor (PathHunter, solvent group = 100%) at 5 nM of 109% and an activation of the IGF-I receptor (PathHunter, solvent group = 100%) at 50 nM of 109%. Also, in test [2], the activation of the insulin receptor (PathHunter, solvent group = 100%) at 5 nM amounted to 104% and the activation of the insulin receptor (PathHunter, solvent group = 100%) at 50 nM is 111%.
Turning to Insulin (ligand), in test [1], the activation of the IGF-I receptor (PathHunter, solvent group = 100%) at 0.5 nM turned out to be 184%; the activation of the IGF-I receptor (PathHunter, solvent group = 100%) at 5 nM was determined as 1240%; the activation of the IGF-I receptor (PathHunter, solvent group = 100%) at 50 nM came to 4620%.

Source of the values: patent US20200115460A1.
